Assay results as given in patent publication US20210347873A1 (SHANGHAI PHARMAEXPLORER, published 2021).

T1: cynomolgus BLyS (full length, arginine 132 mutated to histidine) on CHO-K1 cells (cynomolgus, UniProt Q9Y275 1-285 (human entry))
T1 construct: also called cyno BLyS; CHO-K1 cynoBLyS
T1 chain: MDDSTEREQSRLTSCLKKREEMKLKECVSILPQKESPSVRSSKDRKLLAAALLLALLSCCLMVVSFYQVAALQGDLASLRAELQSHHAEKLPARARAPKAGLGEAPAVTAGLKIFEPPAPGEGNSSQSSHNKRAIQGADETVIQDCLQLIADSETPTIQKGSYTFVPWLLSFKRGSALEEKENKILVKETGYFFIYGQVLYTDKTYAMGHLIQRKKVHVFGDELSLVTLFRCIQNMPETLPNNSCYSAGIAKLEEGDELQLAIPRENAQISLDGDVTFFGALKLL

T2: cynomolgus BLyS (full length, arginine to histidine at position 132) on CHO-K1 cells (cynomolgus, UniProt Q9Y275 1-285 (human entry))
T2 construct: also called cyno BLyS; CHO-K1 cynoBLyS
T2 chain: T1 chain

B1: 20D1B6E9E5 (antibody, V domains shown)
VH: EVQLQQSVAELVRPGASVKLSCTASDFNIKNTYIHWVKQRPEQGLEWIGRIDPVNGNTKYAPKFQDKATIIVDTYSNTAYLQLSSLASEDTAVYYCARWPITTIVATDWYFDVWGTGTTVTVSS
VL: DVLMTQTQLALPVRLGEQASISCRSSQSIVNSNGNTYLEWYLQKPGQSPKLLIYKVSNRFSGVPDRFSGSGSGTDFTLKISRVEAEDLGVYYCFQGSHVPWTFGGGTKLEIK
notes: Mouse hybridoma antibody purified on Protein G
B2: 93C6F10D3 (antibody, V domains shown)
VH: EVQLVESGGGLVTPGGSLKLSCVASGFAFSTYGMSWVRQTPERRLEWVAYISGGGGSIYYPDSVKGRFTISRDNAKNILYLQMSSLKSEDTAMYHCTRHPDLLLRYDYALDHWGQGTSVTVSS
VL: DIQMTQSPASLSASVGETVTITCRASENIHIYLAWYQQKQGKSPQLLVYNGKTLADGVPSRFSGSGSGTQYSLKINTLQPEDFGNYYCQHFWNSTWTFGGGTKLEIK
notes: Mouse hybridoma monoclonal antibody purified on Protein G
B3: 93C6F10D3 (antibody, V domains shown)
VH: B2 VH
VL: B2 VL
notes: as for B1
B4: 97E7B3F2 (antibody, V domains shown)
VH: EVQLQQSGPELVKSGASVKISCKASGYTFTDHKMHWVKQSHGKSLEWIGYISPYNGGTGYNQKFKSKVTLTVDISSSTAYMELRSLTSEDSAVYYCARWGFYDVMDSWGQGTSVTVSS
VL: DVLLTQTPLSLPVSLGDQASISCRSSQTIVHIIGDTYLEWYLQKPGQSPKLLIYKVSNRFSGVPDRFSGSGAGTDFTLKISRVEAEDLGVYYCFQGSHVPRTFGGGTKLEIK
notes: as for B2
B5: 97E7B3F2 (antibody, V domains shown)
VH: B4 VH
VL: B4 VL
notes: as for B1

Experiments:
[1] = target: T3, human BLyS (full length, arginine 132 mutated to histidine) on CHO-K1 cells (human, UniProt Q9Y275 1-285); assay: flow cytometry (FACS) on CHO-K1 hBLyS cells, Alexa 488 secondary antibody
T3 construct: also called hBLyS; CHO-K1 hBLyS
Procedure: (§1) The medium was aspirated completely, and the cells were rinsed once with PBS buffer (purchased from Invitrogen) and then treated with cell dispersion solution (TrypLE™ Express Enzyme, purchased from Life technology) and collected. The detailed steps are as follows: the cells were rinsed once with PBS buffer, after counting, the cells were diluted to 2×10⁶ cells/ml with PBS buffer, blocked with 2% (w/w) fetal bovine serum and incubated on ice for 30 minutes. 200 μL of which per well was aliquoted into a 96-well FACS plate and centrifuged at 2000 rpm at 4° C., then each 100 μL of the lead antibodies obtained from Embodiment 1 and 2 were aliquoted into each well and incubated on ice for 1 hour. […] After centrifuged and rinsed 3 times with FACS buffer, cells were suspended with 200 μL of FACS buffer and the results were detected and analyzed by FACS (FACS Calibur, purchased from BD). It was shown in Tables 12-13 that the lead antibody could bind to human BLyS protein on the cell surface and the lead antibody could cross-react with cynomolgus BLyS. The data in the table is MFI, the average fluorescence intensity of the cell population.

[2] = target: T1, cynomolgus BLyS (full length, arginine …); assay: flow cytometry (FACS) on CHO-K1 cynoBLyS cells, Alexa 488 secondary antibody
Procedure: as §1

[3] = target: T2, cynomolgus BLyS (full length, arginine …); assay: flow cytometry, CHO-K1 cynoBLyS cells, antibody 13.3 nM
Procedure: as §1

[4] = target: hBLyS-ECD (His-tagged extracellular domain of human BLyS protein, Ala134-Leu285) (human, UniProt Q9Y275 134-285); assay: cell-based or functional assay
[5] = target: T4, human BLyS (full length, arginine to histidine at position 132) on CHO-K1 cells (human, UniProt Q9Y275 1-285); assay: flow cytometry, CHO-K1 hBLyS cells, antibody 66.7 nM
T4 construct: also called hBLyS; CHO-K1 hBLyS
Procedure: as §1

[6] = target: T4, human BLyS (full length, arginine to …); assay: flow cytometry, CHO-K1 hBLyS cells, antibody 0.534 nM
Procedure: as §1

[7] = target: T2, cynomolgus BLyS (full length, arginine …); assay: flow cytometry, CHO-K1 cynoBLyS cells, antibody 0.00427 nM
Procedure: as §1

[8] = target: T2, cynomolgus BLyS (full length, arginine …); assay: flow cytometry, CHO-K1 cynoBLyS cells, antibody 0.0213 nM
Procedure: as §1

[9] = target: T4, human BLyS (full length, arginine to …); assay: flow cytometry, CHO-K1 hBLyS cells, antibody 2.67 nM
Procedure: as §1

[10] = target: T2, cynomolgus BLyS (full length, arginine …); assay: flow cytometry, CHO-K1 cynoBLyS cells, antibody 0 nM
Procedure: as §1

[11] = target: T4, human BLyS (full length, arginine to …); assay: flow cytometry, CHO-K1 hBLyS cells, antibody 0.0213 nM
Procedure: as §1

[12] = target: T2, cynomolgus BLyS (full length, arginine …); assay: flow cytometry, CHO-K1 cynoBLyS cells, antibody 0.107 nM
Procedure: as §1

[13] = target: T4, human BLyS (full length, arginine to …); assay: flow cytometry, CHO-K1 hBLyS cells, antibody 0 nM
Procedure: as §1

mouse BLyS protein = mouse BLyS protein (mouse, UniProt Q9WU72 69-309); assay: cell-based or functional assay
[14] = target: T4, human BLyS (full length, arginine to …); assay: flow cytometry, CHO-K1 hBLyS cells, antibody 0.107 nM
Procedure: as §1

[15] = target: T2, cynomolgus BLyS (full length, arginine …); assay: flow cytometry, CHO-K1 cynoBLyS cells, antibody 0.534 nM
Procedure: as §1

[16] = target: T4, human BLyS (full length, arginine to …); assay: flow cytometry, CHO-K1 hBLyS cells, antibody 13.3 nM
Procedure: as §1

[17] = target: T2, cynomolgus BLyS (full length, arginine …); assay: flow cytometry, CHO-K1 cynoBLyS cells, antibody 2.67 nM
Procedure: as §1

[18] = target: T2, cynomolgus BLyS (full length, arginine …); assay: flow cytometry, CHO-K1 cynoBLyS cells, antibody 66.7 nM
Procedure: as §1

[19] = target: T4, human BLyS (full length, arginine to …); assay: flow cytometry, CHO-K1 hBLyS cells, antibody 0.00427 nM
Procedure: as §1

Sequence of mouse BLyS protein (Q9WU72 69-309): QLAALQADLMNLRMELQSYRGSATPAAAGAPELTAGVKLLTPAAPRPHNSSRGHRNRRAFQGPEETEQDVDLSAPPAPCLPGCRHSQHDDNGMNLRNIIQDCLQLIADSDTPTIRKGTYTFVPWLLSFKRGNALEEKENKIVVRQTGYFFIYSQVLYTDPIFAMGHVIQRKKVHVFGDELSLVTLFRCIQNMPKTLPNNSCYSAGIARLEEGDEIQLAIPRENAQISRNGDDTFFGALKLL
T3 sequence (Q9Y275 other isoform, or with tags, fused parts or gaps limits assumed, change not shown): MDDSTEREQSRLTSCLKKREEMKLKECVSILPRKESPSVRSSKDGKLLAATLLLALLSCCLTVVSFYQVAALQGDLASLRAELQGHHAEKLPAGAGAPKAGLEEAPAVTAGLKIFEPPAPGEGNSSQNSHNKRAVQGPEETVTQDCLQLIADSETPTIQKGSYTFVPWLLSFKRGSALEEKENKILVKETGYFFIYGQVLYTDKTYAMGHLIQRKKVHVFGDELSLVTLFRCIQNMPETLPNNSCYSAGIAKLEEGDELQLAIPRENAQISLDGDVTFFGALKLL

Row | Binder | EC50 (read off the curve) [1] [nM] | EC50 (read off the curve) [2] [nM] | MFI [3] [MFI] | mouse B lymphocyte proliferation (OD450 nm), antibody 0 nM [4] [OD450 nm] | mouse B lymphocyte proliferation (OD450 nm), antibody 0.000256 nM [4] [OD450 nm] | mouse B lymphocyte proliferation (OD450 nm), antibody 0.00128 nM [4] [OD450 nm] | mouse B lymphocyte proliferation (OD450 nm), antibody 0.0064 nM [4] [OD450 nm] | mouse B lymphocyte proliferation (OD450 nm), antibody 0.032 nM [4] [OD450 nm] | mouse B lymphocyte proliferation (OD450 nm), antibody 0.16 nM [4] [OD450 nm] | mouse B lymphocyte proliferation (OD450 nm), antibody 0.8 nM [4] [OD450 nm] | mouse B lymphocyte proliferation (OD450 nm), antibody 4 nM [4] [OD450 nm] | mouse B lymphocyte proliferation (OD450 nm), antibody 20 nM [4] [OD450 nm] | mouse B lymphocyte proliferation (OD450 nm), antibody 100 nM [4] [OD450 nm] | MFI [5] [MFI] | MFI [6] [MFI] | MFI [7] [MFI] | MFI [8] [MFI] | MFI [9] [MFI] | MFI [10] [MFI] | MFI [11] [MFI] | also measured
1 | B1 | ~0.2 | ~0.2 |  |  |  |  |  |  |  |  |  |  |  |  |  |  |  |  |  |  | 
2 | B2 |  |  | 714 | 3030 | 3420 | 3550 | 4050 | 4360 | 3530 | 799 | 514 | 466 | 416 | 392 | 306 | 46.9 | 112 | 317 | 21.9 | 76.6 | MFI [12]: 308 MFI; MFI [13]: 31.6 MFI; mouse B lymphocyte proliferation (OD450 nm), antibody 0 nM (mouse BLyS protein): 2310 OD450 nm; mouse B lymphocyte proliferation (OD450 nm), antibody 0.000256 nM (mouse BLyS protein): 2310 OD450 nm; mouse B lymphocyte proliferation (OD450 nm), antibody 0.00128 nM (mouse BLyS protein): 2290 OD450 nm; mouse B lymphocyte proliferation (OD450 nm), antibody 0.0064 nM (mouse BLyS protein): 2510 OD450 nm; mouse B lymphocyte proliferation (OD450 nm), antibody 0.032 nM (mouse BLyS protein): 2540 OD450 nm; mouse B lymphocyte proliferation (OD450 nm), antibody 0.16 nM (mouse BLyS protein): 2540 OD450 nm; mouse B lymphocyte proliferation (OD450 nm), antibody 0.8 nM (mouse BLyS protein): 2530 OD450 nm; mouse B lymphocyte proliferation (OD450 nm), antibody 4 nM (mouse BLyS protein): 2640 OD450 nm; mouse B lymphocyte proliferation (OD450 nm), antibody 20 nM (mouse BLyS protein): 2620 OD450 nm; mouse B lymphocyte proliferation (OD450 nm), antibody 100 nM (mouse BLyS protein): 2740 OD450 nm; MFI [14]: 175 MFI; MFI [15]: 706 MFI; MFI [16]: 327 MFI; MFI [17]: 729 MFI; MFI [18]: 785 MFI; MFI [19]: 44.9 MFI
3 | B3 | ~0.1 | ~0.1 |  |  |  |  |  |  |  |  |  |  |  |  |  |  |  |  |  |  | 
4 | B4 |  |  | 710 | 2960 | 3380 | 3760 | 3770 | 2940 | 2990 | 438 | 364 | 383 | 377 | 406 | 318 | 53 | 112 | 332 | 22.8 | 78.7 | MFI [12]: 288 MFI; MFI [13]: 32.4 MFI; mouse B lymphocyte proliferation (OD450 nm), antibody 0 nM (mouse BLyS protein): 2130 OD450 nm; mouse B lymphocyte proliferation (OD450 nm), antibody 0.000256 nM (mouse BLyS protein): 2200 OD450 nm; mouse B lymphocyte proliferation (OD450 nm), antibody 0.00128 nM (mouse BLyS protein): 2150 OD450 nm; mouse B lymphocyte proliferation (OD450 nm), antibody 0.0064 nM (mouse BLyS protein): 2310 OD450 nm; mouse B lymphocyte proliferation (OD450 nm), antibody 0.032 nM (mouse BLyS protein): 2580 OD450 nm; mouse B lymphocyte proliferation (OD450 nm), antibody 0.16 nM (mouse BLyS protein): 2360 OD450 nm; mouse B lymphocyte proliferation (OD450 nm), antibody 0.8 nM (mouse BLyS protein): 2310 OD450 nm; mouse B lymphocyte proliferation (OD450 nm), antibody 4 nM (mouse BLyS protein): 2410 OD450 nm; mouse B lymphocyte proliferation (OD450 nm), antibody 20 nM (mouse BLyS protein): 2290 OD450 nm; mouse B lymphocyte proliferation (OD450 nm), antibody 100 nM (mouse BLyS protein): 2310 OD450 nm; MFI [14]: 174 MFI; MFI [15]: 688 MFI; MFI [16]: 349 MFI; MFI [17]: 705 MFI; MFI [18]: 770 MFI; MFI [19]: 48.2 MFI
5 | B5 | ~0.1 | ~0.1 |  |  |  |  |  |  |  |  |  |  |  |  |  |  |  |  |  |  | 
